Here are results for four molecules from publication PMC6934326, “A kinase-dependent checkpoint prevents escape of immature ribosomes into the translating pool” (PLoS Biology, 2019).

Series [1] deals with Nob1. Briefly: EMSA. Conditions: 40 mM HEPES pH 7.6, 50 mM KCl, 10 mM MgCl2, 10 min at 30 C; trace 32P RNA prefolded at 65 C in 40 mM HEPES pH 7.6, 100 mM KCl, 2 mM MgCl2; 6% acrylamide/THEM ….
In series [2] the target is T1, Nob1–Pno1 complex (S. cerevisiae, UniProt Q08444 1-459; Q99216 1-274).
T1 construct: Nob1, S. cerevisiae, untagged, as m2; Pno1, S. cerevisiae, untagged, as m3; The two proteins were added together with MBP-Rio1 and preincubated; the complex was not isolated beforehand; also called Nob1 and Pno1
T1 sequence (looked up) 1: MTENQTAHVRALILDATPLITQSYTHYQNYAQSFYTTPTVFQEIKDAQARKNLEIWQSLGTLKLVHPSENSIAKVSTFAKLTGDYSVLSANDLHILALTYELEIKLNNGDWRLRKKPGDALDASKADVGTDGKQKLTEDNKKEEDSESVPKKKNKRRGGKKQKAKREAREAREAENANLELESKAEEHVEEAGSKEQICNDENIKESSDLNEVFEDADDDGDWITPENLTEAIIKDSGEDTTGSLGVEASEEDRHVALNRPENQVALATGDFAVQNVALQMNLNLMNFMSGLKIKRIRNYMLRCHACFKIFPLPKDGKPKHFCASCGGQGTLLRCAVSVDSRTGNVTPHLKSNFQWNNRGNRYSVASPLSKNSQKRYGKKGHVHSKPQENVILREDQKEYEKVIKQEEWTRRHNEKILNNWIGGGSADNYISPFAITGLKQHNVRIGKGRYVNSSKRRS
T1 sequence (looked up) 2: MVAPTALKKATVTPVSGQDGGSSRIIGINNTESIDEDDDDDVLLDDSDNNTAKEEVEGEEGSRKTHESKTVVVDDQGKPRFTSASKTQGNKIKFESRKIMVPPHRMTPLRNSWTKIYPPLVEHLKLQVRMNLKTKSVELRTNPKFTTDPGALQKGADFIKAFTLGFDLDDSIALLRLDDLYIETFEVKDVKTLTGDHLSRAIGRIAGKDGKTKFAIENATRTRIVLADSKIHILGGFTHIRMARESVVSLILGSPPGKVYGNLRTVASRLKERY
Put plainly: pull-down; 7 μM MBP-tagged protein held on amylose resin, 20 μM untagged protein; 50 mM HEPES pH 7.5, 200 mM NaCl, 5 mM MgCl2, 2 mM AMPPNP; 4 °C; eluted with 50 mM maltose; Coomassie-stained SDS-PAGE. Conditions: both partners purified.

In series [3] the target is T2, MBP-Nob1 (Saccharomyces cerevisiae (strain ATCC …, UniProt Q08444)).
T2 chain: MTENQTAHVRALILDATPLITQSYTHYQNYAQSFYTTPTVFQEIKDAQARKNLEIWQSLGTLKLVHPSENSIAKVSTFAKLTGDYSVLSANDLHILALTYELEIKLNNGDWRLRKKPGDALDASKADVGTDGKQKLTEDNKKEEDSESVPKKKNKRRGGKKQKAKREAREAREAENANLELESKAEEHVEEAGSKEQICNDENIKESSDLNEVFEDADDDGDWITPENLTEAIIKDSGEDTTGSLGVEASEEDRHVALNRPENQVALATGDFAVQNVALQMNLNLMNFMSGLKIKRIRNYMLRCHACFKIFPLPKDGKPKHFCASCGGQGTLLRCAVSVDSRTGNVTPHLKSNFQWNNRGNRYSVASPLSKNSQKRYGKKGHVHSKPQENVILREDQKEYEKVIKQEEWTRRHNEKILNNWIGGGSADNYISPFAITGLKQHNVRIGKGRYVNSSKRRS
Put plainly: MBP pull-down (amylose resin), Coomassie SDS-PAGE; tested with AMPPNP; Rio1 binding requires Pno1 as well as Nob1.

In series [4] the target is T3, MBP-Pno1 (Saccharomyces cerevisiae (strain ATCC …, UniProt Q99216)).
T3 chain: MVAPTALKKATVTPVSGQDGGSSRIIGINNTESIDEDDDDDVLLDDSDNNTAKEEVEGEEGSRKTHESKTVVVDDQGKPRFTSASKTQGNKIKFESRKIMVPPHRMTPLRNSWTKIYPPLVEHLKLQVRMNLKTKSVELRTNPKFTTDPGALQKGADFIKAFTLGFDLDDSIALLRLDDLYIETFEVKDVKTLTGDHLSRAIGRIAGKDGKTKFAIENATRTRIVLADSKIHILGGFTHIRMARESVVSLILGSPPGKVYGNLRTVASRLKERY
Put plainly: MBP pull-down (amylose resin), Coomassie SDS-PAGE; tested with AMPPNP; Rio1 binding requires Nob1 as well as Pno1.

In series [5] the target is T4, maltose-binding protein (MBP)-Rio1 (Saccharomyces cerevisiae (strain ATCC …, UniProt Q12196)).
T4 chain: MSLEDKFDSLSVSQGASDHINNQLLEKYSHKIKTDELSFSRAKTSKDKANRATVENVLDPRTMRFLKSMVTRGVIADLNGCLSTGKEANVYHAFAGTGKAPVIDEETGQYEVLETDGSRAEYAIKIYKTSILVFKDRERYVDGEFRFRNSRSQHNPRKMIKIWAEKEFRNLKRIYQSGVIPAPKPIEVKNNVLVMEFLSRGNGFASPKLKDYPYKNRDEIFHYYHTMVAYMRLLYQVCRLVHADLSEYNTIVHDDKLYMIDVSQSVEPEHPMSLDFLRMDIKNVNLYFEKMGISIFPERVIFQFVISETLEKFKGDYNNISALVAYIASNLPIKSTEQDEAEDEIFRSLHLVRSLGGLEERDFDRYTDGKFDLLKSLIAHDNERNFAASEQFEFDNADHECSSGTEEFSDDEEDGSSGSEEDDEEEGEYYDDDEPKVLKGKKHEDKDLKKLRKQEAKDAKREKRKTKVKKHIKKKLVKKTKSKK
Briefly: MBP pull-down (amylose resin), Coomassie SDS-PAGE; tested with AMPPNP; Rio1 binds only when Nob1 and Pno1 are both present (with AMPPNP, little to none with ADP).

With D-A2 (3'-ITS1 product), the Kd in series [1] is 960 nM.

B1: maltose-binding protein (MBP)-Rio1 (enzyme, S. cerevisiae, UniProt Q12196 1-484, looked up)
chain: MSLEDKFDSLSVSQGASDHINNQLLEKYSHKIKTDELSFSRAKTSKDKANRATVENVLDPRTMRFLKSMVTRGVIADLNGCLSTGKEANVYHAFAGTGKAPVIDEETGQYEVLETDGSRAEYAIKIYKTSILVFKDRERYVDGEFRFRNSRSQHNPRKMIKIWAEKEFRNLKRIYQSGVIPAPKPIEVKNNVLVMEFLSRGNGFASPKLKDYPYKNRDEIFHYYHTMVAYMRLLYQVCRLVHADLSEYNTIVHDDKLYMIDVSQSVEPEHPMSLDFLRMDIKNVNLYFEKMGISIFPERVIFQFVISETLEKFKGDYNNISALVAYIASNLPIKSTEQDEAEDEIFRSLHLVRSLGGLEERDFDRYTDGKFDLLKSLIAHDNERNFAASEQFEFDNADHECSSGTEEFSDDEEDGSSGSEEDDEEEGEYYDDDEPKVLKGKKHEDKDLKKLRKQEAKDAKREKRKTKVKKHIKKKLVKKTKSKK
notes: Rio1, aspartate kinase, S. cerevisiae; cloned into pSV272 as a TEV-cleavable His6-MBP fusion; The tag was not cut off for this form; also called His-MBP-tagged Rio1; His6-MBP fusion protein; source: E. coli Rosetta DE3, purified (Ni-NTA, MonoQ, Superdex200)
For the molecule B1, the binding result in series [2] was “binds”; in series [3], “no binding”; in series [4], “no binding”.

B2: Nob1 (protein)
chain: MTENQTAHVRALILDATPLITQSYTHYQNYAQSFYTTPTVFQEIKDAQARKNLEIWQSLGTLKLVHPSENSIAKVSTFAKLTGDYSVLSANDLHILALTYELEIKLNNGDWRLRKKPGDALDASKADVGTDGKQKLTEDNKKEEDSESVPKKKNKRRGGKKQKAKREAREAREAENANLELESKAEEHVEEAGSKEQICNDENIKESSDLNEVFEDADDDGDWITPENLTEAIIKDSGEDTTGSLGVEASEEDRHVALNRPENQVALATGDFAVQNVALQMNLNLMNFMSGLKIKRIRNYMLRCHACFKIFPLPKDGKPKHFCASCGGQGTLLRCAVSVDSRTGNVTPHLKSNFQWNNRGNRYSVASPLSKNSQKRYGKKGHVHSKPQENVILREDQKEYEKVIKQEEWTRRHNEKILNNWIGGGSADNYISPFAITGLKQHNVRIGKGRYVNSSKRRS
Take B2: the binding result in series [5] was “no binding”.

B3: Pno1 (protein)
chain: MVAPTALKKATVTPVSGQDGGSSRIIGINNTESIDEDDDDDVLLDDSDNNTAKEEVEGEEGSRKTHESKTVVVDDQGKPRFTSASKTQGNKIKFESRKIMVPPHRMTPLRNSWTKIYPPLVEHLKLQVRMNLKTKSVELRTNPKFTTDPGALQKGADFIKAFTLGFDLDDSIALLRLDDLYIETFEVKDVKTLTGDHLSRAIGRIAGKDGKTKFAIENATRTRIVLADSKIHILGGFTHIRMARESVVSLILGSPPGKVYGNLRTVASRLKERY
As to B3, in series [5], the binding result is reported as “no binding”.
